# According to the supplement of paper PMC9732359:
# ± gives the uncertainty stated by the source.
# Assay: protein stability index of a GFP-peptide fusion (yeast GPS) (PSI 1-4); higher = more stable; sorted into four equal gates, so the index is relative within each strain
# Summary of the method: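 Peptides tiling yeast proteins in 17-residue segments were fused downstream of GFP, with Cherry expressed from the same plasmid. As a pooled library in yeast, mid-log cultures grown in leucine-free medium were sorted into four equal gates by GFP/Cherry fluorescence ratio. Gate plasmids were PCR-amplified and Illumina-sequenced, and barcodes linked reads to strains. Each peptide received a protein stability index equal to the sum of each gate's read frequency times its gate number.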
Sequence,protein stability index (doa10∆),protein stability index (pdr5∆),protein stability index (san1∆),protein stability index (ubr1∆)
VQRTMLELLNQLDGFSS [RPT5],2.99 ± 0.078,2.88 ± 0.072,2.83 ± 0.063,2.99 ± 0.05
NELLKCKDDVQLQKILE [MTW1],2.97 ± 0.057,3.04 ± 0.051,3.05 ± 0.035,3.04 ± 0.037
QEQITLYDHWDKYHEQW [SSN8],3.32 ± 0.19,3.12 ± 0.12,2.84 ± 0.071,2.76 ± 0.046
QSDSAKVEIKKVNSRDD [PRP28],3.08 ± 0.079,3.44 ± 0.067,2.73 ± 0.088,2.9 ± 0.12
GDAAPAEEAAAEEEEES [RPP0],,3.67 ± 0.16,3.29 ± 0.13,3.44 ± 0.12
LDEVDAALDLSHTQNIG [SMC2],3.07 ± 0.17,3.21 ± 0.1,3.02 ± 0.11,3.12 ± 0.067
AVYFADTSGLKISNSEF [SIN4],2.96 ± 0.072,3.32 ± 0.08,3.1 ± 0.049,3.18 ± 0.063
SGKSNFFAAIRFVLSDD [SMC3],3.02 ± 0.11,3.36 ± 0.096,3.38 ± 0.08,3.22 ± 0.052
NSPSKGNSERPSAVAGF [YIL149C/MLP2],3.2 ± 0.087,3.45 ± 0.1,3.1 ± 0.089,3.16 ± 0.11
FIKLQKIDIIELQKSLS [FAS1],2.15 ± 0.045,2 ± 0.044,2.04 ± 0.059,2.28 ± 0.047
CLNCEKSKLFEWKSEFV [SNM1],2.61 ± 0.14,2.68 ± 0.13,2.97 ± 0.067,2.7 ± 0.12
NNDGSYGLFLKYHKEQF [SRB8],2.61 ± 0.086,2.34 ± 0.07,2.12 ± 0.12,1.82 ± 0.069
DEGKEIPATIFDKVIYH [TAF14],3.13 ± 0.077,3.14 ± 0.059,3.15 ± 0.041,3.02 ± 0.056
RTRRLKRKRRKVRARSK [RPL41A],,3.13 ± 0.22,,3.22 ± 0.2
DVNIIGKDRIAINVFPE [RPO31],2.75 ± 0.12,3.05 ± 0.12,2.88 ± 0.098,3.36 ± 0.086
TKTRKHRGHVSAGKGRI [RPL28],1.91 ± 0.06,2.21 ± 0.062,2.09 ± 0.12,2.4 ± 0.062
INKNSKIALREYINNCK [POP4],2.04 ± 0.23,2.17 ± 0.098,2.42 ± 0.11,1.73 ± 0.14
GPPYTTDEHLIFNSGKM [ISW2],3.13 ± 0.059,3.26 ± 0.058,3.06 ± 0.049,2.99 ± 0.048
DPKTSLRIVKPTVSLTI [RPC82],2.3 ± 0.095,2.3 ± 0.084,2.56 ± 0.14,3.34 ± 0.079

Sequence,protein stability index (doa10∆),protein stability index (pdr5∆),protein stability index (san1∆),protein stability index (ubr1∆)
SASFSLKNGDKPHLLKF [RPL6B],2.4 ± 0.16,2.42 ± 0.23,3.25 ± 0.14,3.42 ± 0.16
VSHHATTFTHCEIHPSM [RPB2],3.12 ± 0.076,3.22 ± 0.069,2.46 ± 0.12,2.96 ± 0.062
SEAEQIDTSKNLENMSI [YCG1],3.3 ± 0.073,3.28 ± 0.068,3.17 ± 0.068,2.99 ± 0.069
RFELHGDMTNSDAQSNL [REC8],2.93 ± 0.27,3.58 ± 0.13,2.9 ± 0.17,3.22 ± 0.095
ADDAISMHLLKDWTDTF [SRB8],3.12 ± 0.056,2.94 ± 0.058,2.94 ± 0.044,2.95 ± 0.065
QIYGFEGLNQRNQVQTE [YGR119C/NUP57],3.16 ± 0.17,2.94 ± 0.22,3.08 ± 0.13,3.39 ± 0.18
HNGSHRTVAGFSNVELP [ARP7],3.1 ± 0.071,2.83 ± 0.07,2.72 ± 0.085,2.8 ± 0.048
VNGLLQVLMDINTLNGG [GAL11],2.98 ± 0.079,3.03 ± 0.077,3 ± 0.075,2.91 ± 0.036
GQGAFGNMCRGGRMFAP [RPL4A],3.61 ± 0.2,3.06 ± 0.27,3.23 ± 0.067,3.4 ± 0.11
DPKFVNSLLAKLKDSKK [YML103C/NUP188],2.54 ± 0.2,2.86 ± 0.1,1.99 ± 0.15,2.54 ± 0.082
RQFEVKQLQLAMHNSKA [POP1],1.95 ± 0.055,2.17 ± 0.059,1.77 ± 0.088,1.61 ± 0.038
DLRLIKVPQQAAGKRIS [SMC1],1.36 ± 0.099,1.31 ± 0.2,1.1 ± 0.13,1.15 ± 0.07
LIDFEYVNDVAIYNNPT [RRI2],2.73 ± 0.062,2.92 ± 0.038,2.67 ± 0.057,2.95 ± 0.049
FFAYFIGWCKEDPKRRA [YJL039C/NUP192],2.15 ± 0.15,2.03 ± 0.078,2.61 ± 0.057,3.21 ± 0.066
KKRESGVEEEEELKDSE [SNF2],3.38 ± 0.28,,3.3 ± 0.12,
RNEEILRDIGECENEIK [SMC2],2.75 ± 0.094,2.94 ± 0.075,2.49 ± 0.12,3.23 ± 0.11
KVAPAPFGAKSTKSNKT [RPL8A],2.68 ± 0.1,2.84 ± 0.076,2.74 ± 0.071,2.94 ± 0.068
EYQVIGRRLPTESVPEP [RPL20A],3.08 ± 0.11,3.21 ± 0.1,3.1 ± 0.13,3.15 ± 0.06
LDENKWYKFNDDKVSVV [UBP6],2.87 ± 0.12,3.06 ± 0.091,3.06 ± 0.1,2.97 ± 0.081
